Where a chain is given by its changes, count along the chain named. Names and notes keep the numbering of the source.
B1: CEACAM5-TCB, CEACAM5 CD3 variant P035.093 (bispecific antibody, human IgG1, kappa, L234A L235A)
heavy 1: not shown
heavy 2: QVQLVQSGAEVKKPGSSVKVSCKASGFNIKDTYMHWVRQAPGQGLEWMGRIDPANGNSKYVPKFQGRVTITADTSTSTAYMELSSLRSEDTAVYYCAPFGYYVSDYAMAYWGQGTLVTVSSASTKGPSVFPLAPSSKSTSGGTAALGCLVEDYFPEPVTVSWNSGALTSGVHTFPAVLQSSGLYSLSSVVTVPSSSLGTQTYICNVNHKPSNTKVDEKVEPKSCDKTHTCPPCPAPEAAGGPSVFLFPPKPKDTLMISRTPEVTCVVVDVSHEDPEVKFNWYVDGVEVHNAKTKPREEQYNSTYRVVSVLTVLHQDWLNGKEYKCKVSNKALGAPIEKTISKAKGQPREPQVCTLPPSRDELTKNQVSLSCAVKGFYPSDIAVEWESNGQPENNYKTTPPVLDSDGSFFLVSKLTVDKSRWQQGNVFSCSVMHEALHNHYTQKSLSLSP
light 1: EIVLTQSPATLSLSPGERATLSCRAGESVDIFGVGFLHWYQQKPGQAPRLLIYRASNRATGIPARFSGSGSGTDFTLTISSLEPEDFAVYYCQQTNEDPYTFGQGTKLEIKRTVAAPSVFIFPPSDRKLKSGTASVVCLLNNFYPREAKVQWKVDNALQSGNSQESVTEQDSKDSTYSLSSTLTLSKADYEKHKVYACEVTHQGLSSPVTKSFNRGEC
light 2: EVQLLESGGGLVQPGGSLRLSCAASGFTFSSYAMNWVRQAPGKGLEWVSRIRSKYNNYATYYADSVKGRFTISRDDSKNTLYLQMNSLRAEDTAVYYCVRASNFPASYVSYFAYWGQGTLVTVSSASVAAPSVFIFPPSDEQLKSGTASVVCLLNNFYPREAKVQWKVDNALQSGNSQESVTEQDSKDSTYSLSSTLTLSKADYEKHKVYACEVTHQGLSSPVTKSFNRGEC
notes: 2+1 IgG CrossFab, inverted; human IgG1 Fc, knob-into-hole, PGLALA; also called P035.093 in CEACAM5-TCB format
B2: CEACAM5-TCB, CEACAM5 CD3 variant P004.042 (bispecific antibody, human IgG1, kappa, L234A L235A)
heavy 1: not shown
heavy 2: B1 heavy 2
light 1: B1 light 1
light 2: B1 light 2 with T28Q, S30D, S31N, S53T, N57E, A106Q, A113G
notes: 2+1 IgG CrossFab, inverted; human IgG1 Fc, knob-into-hole, PGLALA; also called P004.042 in CEACAM5-TCB format
B3: CEACAM5-TCB with CD3orig as CD3 binder (bispecific antibody, human IgG1, kappa, L234A L235A)
heavy 1: not shown
heavy 2: B1 heavy 2
light 1: B1 light 1
light 2: B1 light 2 with S31T, A101H, S102G, P105G, A106N, Y111W
notes: also called CD3orig in CEACAM5-TCB format
B4: TYRP1-TCB with the parental CD3 binder CD3orig (bispecific antibody, human IgG1, kappa, L234A L235A)
heavy 1: not shown
heavy 2: QVQLVQSGAEVKKPGASVKVSCKASGFNIKDYFLHWVRQAPGQGLEWMGWINPDNGNTVYAQKFQGRVTMTADTSTSTVYMELSSLRSEDTAVYYCTRRDYTYEKAALDYWGQGTLVTVSSASTKGPSVFPLAPSSKSTSGGTAALGCLVEDYFPEPVTVSWNSGALTSGVHTFPAVLQSSGLYSLSSVVTVPSSSLGTQTYICNVNHKPSNTKVDEKVEPKSCDKTHTCPPCPAPEAAGGPSVFLFPPKPKDTLMISRTPEVTCVVVDVSHEDPEVKFNWYVDGVEVHNAKTKPREEQYNSTYRVVSVLTVLHQDWLNGKEYKCKVSNKALGAPIEKTISKAKGQPREPQVCTLPPSRDELTKNQVSLSCAVKGFYPSDIAVEWESNGQPENNYKTTPPVLDSDGSFFLVSKLTVDKSRWQQGNVFSCSVMHEALHNHYTQKSLSLSP
light 1: DIQMTQSPSSLSASVGDRVTITCRASGNIYNYLAWYQQKPGKVPKLLIYDAKTLADGVPSRFSGSGSGTDFTLTISSLQPEDVATYYCQHFWSLPFTFGQGTKLEIKRTVAAPSVFIFPPSDRKLKSGTASVVCLLNNFYPREAKVQWKVDNALQSGNSQESVTEQDSKDSTYSLSSTLTLSKADYEKHKVYACEVTHQGLSSPVTKSFNRGEC
light 2: B1 light 2 with S31T, A101H, S102G, P105G, A106N, Y111W
notes: Same 2+1 format as m1; also called CD3orig in TCB format
B5: TYRP1-TCB with anti-CD3 antibody clone P035.064 (bispecific antibody, human IgG1, kappa, L234A L235A)
heavy 1: not shown
heavy 2: B4 heavy 2
light 1: B4 light 1
light 2: B1 light 2 with T28D, S30D, S31N, Y55H, N57G, A106S, A113G
notes: human IgG1 Fc, knob-into-hole, P329G L234A L235A; also called P035.064 in TCB format
B6: TYRP1-TCB with anti-CD3 antibody clone P004.042 (bispecific antibody, human IgG1, kappa, L234A L235A)
heavy 1: not shown
heavy 2: B4 heavy 2
light 1: B4 light 1
light 2: B1 light 2 with T28Q, S30D, S31N, S53T, N57E, A106Q, A113G
notes: human IgG1 Fc, knob-into-hole, P329G L234A L235A; also called P004.042 in TCB format
B7: TYRP1-TCB with anti-CD3 antibody clone P021.045 (bispecific antibody, human IgG1, kappa, L234A L235A)
heavy 1: not shown
heavy 2: B4 heavy 2
light 1: B4 light 1
light 2: B1 light 2 with A106S
notes: human IgG1 Fc, knob-into-hole, P329G L234A L235A; also called P021.045 in TCB format
B8: TYRP1-TCB with anti-CD3 antibody clone P035.093 (bispecific antibody, human IgG1, kappa, L234A L235A)
heavy 1: not shown
heavy 2: B4 heavy 2
light 1: B4 light 1
light 2: B1 light 2
notes: human IgG1 Fc, knob-into-hole, P329G L234A L235A; also called P035.093 in TCB format

biological target: human CD3 on cells (CD3ε) (human, UniProt P07766 23-207); test: cell-based or functional assay
Sequence (P07766 23-207 limits assumed): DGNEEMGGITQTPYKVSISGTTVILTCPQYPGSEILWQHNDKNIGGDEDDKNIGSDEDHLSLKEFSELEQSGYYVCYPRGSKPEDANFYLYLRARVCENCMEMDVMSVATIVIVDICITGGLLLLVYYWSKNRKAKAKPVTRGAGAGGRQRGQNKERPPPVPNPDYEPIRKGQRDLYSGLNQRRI

Binder	EC50 24 h (pM), T-cell mediated lysis of CEACAM5-expressing LS180 tumor cells [pM]	EC50 48 h (pM), T-cell mediated lysis of CEACAM5-expressing LS180 tumor cells [pM]
B1	22	14.2
B2	59.1	36.9
B3	244	115

biological target: T1, Human CD3ε stalk-Fc(knob)-Avi/CD3δ stalk-Fc(hole) (human); test: SPR, TCB captured by anti-PG antibody, antigen as analyte, 25°C
T1 construct: Heterodimer of CD3 delta and CD3 epsilon ectodomains fused to human Fc with knob-into-hole; also called human CD3ε/δ; CD3 antigen
Source text: (§1) For affinity measurements, TCB molecules were captured on a C1 sensorchip (GE Healthcare) surface with immobilized anti-Fc(P329G) IgG (an antibody that specifically binds human IgG₁ Fc(P329G); “anti-PG antibody”—see WO 2017/072210, incorporated herein by reference). The experimental setup is schematically depicted in FIG. 3. Capture IgG was coupled to the sensorchip surface by direct immobilization of around 400 resonance units (RU) using the standard amine coupling kit (GE Healthcare Life Sciences).
(§2) To analyze the interaction to CD3, TCB molecules were captured for 80 s at 25 nM with a flow rate of 10 μl/min. […] The dissociation was monitored for 800 s.
(§3) Kinetic constants were derived using the Biacore T200 Evaluation Software (GE Healthcare Life Sciences), to fit rate equations for 1:1 Langmuir binding by numerical integration. The half-life (t_{1/2}) of the interaction was calculated using the formula t_{1/2}=ln2/koff.

Binder	Kd [pM]	koff [s⁻¹]	kon [M⁻¹ s⁻¹]	t1/2 [min]
B4	6540	0.00338	517000	3.42
B5	630	0.00115	1.83e+06	10
B6	1540	0.00295	1.92e+06	3.92
B7	430	0.00133	3.1e+06	8.69
B8	410	0.00153	3.75e+06	7.55

biological target: T2, Cynomolgus CD3ε stalk-Fc(knob)-Avi/CD3δ stalk-Fc(hole) (cynomolgus); test: as above
T2 construct: also called cynomolgus CD3ε/δ
Source text: as §1, §2, §3

Binder	Kd [pM]	koff [s⁻¹]	kon [M⁻¹ s⁻¹]	t1/2 [min]
B5	380	0.000921	2.44e+06	12.5
B6	710	0.00272	3.85e+06	4.25
B7	200	0.000967	4.88e+06	11.9
B8	210	0.00104	4.89e+06	11.1

biological target: T1, Human CD3ε stalk-Fc(knob)-Avi/CD3δ …; test: as above; remark: another data set of the same source
Source text: as §1, §3
(§4) To analyze the interaction to CD3, TCB molecules were captured for 240 s at 25 nM with a flow rate of 10 μl/min. Human and cynomolgus CD3F stalk-Fc(knob)-Avi/CD36-stalk-Fc(hole) were passed at a concentration of 0.14-100 nM with a flow rate of […] through the flow cells for 240 s. The dissociation was monitored for 800 s.

Binder	Kd [pM]	koff [s⁻¹]	kon [M⁻¹ s⁻¹]	t1/2 [min]
B1	384	0.00111	2.93e+06	10.4
B2	1310	0.00261	2.02e+06	4.42
B3	3370	0.00281	851000	4.1

biological target: T2, Cynomolgus CD3ε stalk-Fc(knob)-Avi/CD3δ …; test: as above; remark: another data set of the same source
Source text: as §1, §3, §4

Binder	Kd [pM]	koff [s⁻¹]	kon [M⁻¹ s⁻¹]	t1/2 [min]
B1	201	0.000765	3.8e+06	15.1
B2	641	0.00162	2.54e+06	7.1

biological target: T1, Human CD3ε stalk-Fc(knob)-Avi/CD3δ …; test: SPR on immobilized human CD3ε/δ after stress, relative to sample kept at -80°C pH 6
Description: (§5) In order to assess the effect of the deamidation site removal and its effect on the stability of the antibodies, the optimized anti-CD3 antibodies (in TCB format) were incubated for 14 days at 37° C., pH 7.4 and at 40° C., pH 6 and further analyzed by SPR for their binding capability to human CD3ε/δ. Samples stored at −80° C. pH 6 were used as reference. The reference samples and the samples stressed at 40° C. were in 20 mM His, 140 mM NaCl, pH 6.0, and the samples stressed at 37° C. in PBS, pH 7.4, all at a concentration of 1.0 mg/ml. After the stress period (14 days) samples in PBS were dialyzed back to 20 mM His, 140 mM NaCl, pH 6.0 for further analysis.
(§6) All SPR experiments were performed on a Biacore T200 instrument (GE Healthcare) at 25° C. with HBS-P+ (10 mM HEPES, 150 mM NaCl pH 7.4, 0.05% Surfactant P20) as running and dilution buffer. Biotinylated human CD3ε/δ (see Example 3, SEQ ID NOs 41 and 42) as well as biotinylated anti-huIgG (Capture Select, Thermo Scientific, #7103262100) were immobilized on a Series S Sensor Chip SA (GE Healthcare, #29104992), resulting in surface densities of at least 1000 resonance units (RU). Anti-CD3 antibodies with a concentration of 2 μg/ml were injected for 30 s at a flow rate of 5 μl/min, and dissociation was monitored for 120 s. The surface was regenerated by injecting 10 mM glycine pH 1.5 for 60 s. Bulk refractive index differences were corrected by subtracting blank injections and by subtracting the response obtained from a blank control flow cell. For evaluation, the binding response 5 seconds after injection end was taken. To normalize the binding signal, the CD3 binding was divided by the anti-huIgG response (the signal (RU) obtained upon capture of the CD3 antibody on the immobilized anti-huIgG antibody). The relative binding activity was calculated by referencing each temperature stressed sample to the corresponding, non-stressed sample.

Binder	binding activity [%] after 2 weeks at pH 6.0/40°C [%]	binding activity [%] after 2 weeks at pH 7.4/37°C [%]
B4	95	65
B5	97	96
B6	98	98
B7	99	95
B8	97	95

biological target: T1, Human CD3ε stalk-Fc(knob)-Avi/CD3δ …; test: as above; remark: another data set of the same source
Description: as §5, §6
The experiment was performed as described in Example 4, using the TCB molecules prepared in Example 7.

Binder	binding activity [%] after 2 weeks at pH 6.0/40°C [%]	binding activity [%] after 2 weeks at pH 7.4/37°C [%]
B1	100	97
B2	100	99
B3	95	66
